{"source": "patent US20070167369A1", "about": "(published 2007)", "target": "HUVECs", "assay": "cell binding (Scatchard, Abs. 490 nm)"}
{"binder": "Regenin (other) MGTVMDVLKGDNRFSMLVAAIQSAGLTETLNREGVYTVFAPTNEAFRALPPRERSRLLGDAKELANILKYHIGDEILVSGGIGALVRLKSLQGDKLEVSLKNNVVSVNKEPVAEPDIMATNGVVHVITNVLMGTVMDVLKGDNRFSMLVAAIQSAGLTETLNREGVYTVFAPTNEAFRALPPRERSRLLGDAKELANILKYHIGDEILVSGGIGALVRLKSLQGDKLEVSLKNNVVSVNKEPVAEPDIMATNGVVHVITNVLMGTVMDVLKGDNRFSMLVAAIQSAGLTETLNREGVYTVFAPTNEAFRALPPRERSRLLGDAKELANILKYHIGDEILVSGGIGALVRLKSLQGDKLEVSLKNNVVSVNKEPVAEPDIMATNGVVHVITNVLMGTVMDVLKGDNRFSMLVAAIQSAGLTETLNREGVYTVFAPTNEAFRALPPRERSRLLGDAKELANILKYHIGDEILVSGGIGALVRLKSLQGDKLEVSLKNNVVSVNKEPVAEPDIMATNGVVHVITNVL", "values": [{"measurement": "Kd", "result": 1000, "unit": "nM"}]}
